Test [1] deals with triglyceride-rich lipoproteins. Description: co-incubation with TGRLP, cell binding and ligand blots.
In test [2] the target is trypsinized VLDL Sf100-400, devoid of apoE (tryp-VLDL) (human) (UniProt P04114). Description: inhibition of 125I-tryp-VLDL1 binding to THP-1 macrophages, 4 °C, LpL 1.6 µg/ml.
The target of test [3] is trypsinized VLDL2 (tryp-VLDL2) (human) (UniProt P04114). Description: inhibition of 125I-tryp-VLDL2 binding to THP-1 macrophages, 4 °C, LpL 1.0 µg/ml.

B1: lipoprotein lipase (enzyme, UniProt P06858 28-475, looked up, species assumed)
Lipoprotein lipase: ADQRRDFIDIESKFALRTPEDTAEDTCHLIPGVAESVATCHFNHSSKTFMVIHGWTVTGMYESWVPKLVAALYKREPDSNVIVVDWLSRAQEHYPVSAGYTKLVGQDVARFINWMEEEFNYPLDNVHLLGYSLGAHAAGIAGSLTNKKVNRITGLDPAGPNFEYAEAPSRLSPDDADFVDVLHTFTRGSPGRSIGIQKPVGHVDIYPNGGTFQPGCNIGEAIRVIAERGLGDVDQLVKCSHERSIHLFIDSLLNEENPSKAYRCSSKEAFEKGLCLSCRKNRCNNLGYEINKVRAKRSSKMYLKTRSQMPYKVFHYQVKIHFSGTESETHTNQAFEISLYGTVAESENIPFTLPEVSTNKTYSFLIYTEVDIGELLMLKLKWKSDSYFSWSDWWSSPGFAIQKIRVKAGETQKKVIFCSREKVSHLQKGKAPAVFVKCHDKSLNKKSG
Consider B1, for which the percent inhibition of specific binding in test [1] is 25%. Besides, the Percent Inhibition in test [2] is 26%; in test [3], 17%.
